# Source: publication PMC4568394, “Differentially expressed seed aging responsive heat shock protein OsHSP18.2 implicates in seed vigor, longevity and improves germination and seedling establishment under abiotic stress” (Frontiers in Plant Science, 2015)
# B1: OsHSP18.2, a class II cytosolic small heat shock protein of rice (6X His tagged recombinant) (natural protein, Oryza sativa indica var. PB-1, UniProt Q5VRY1 1-166, looked up)
# chain: MESAMFGLETPLMTALQHLLDIPDGEGGAAGKQGATGGPTRAYVRDARAMAATPADVKDLPGAYAFVVDMPGLKSSDIKVQVEEERLLVISGERRRGGGEEEKEESCKYLRMERRMGKFMRKFVLPDNADVDKISAVCQDGVLTVTVEKLPPPEPKKPKTIEVKVA
# notes: OsHSP18.2, class II heat shock protein, Oryza sativa indica var; complete ORF / CDS, 166 aa, predicted 18.2 kDa; the indica PB-1 clone may differ from it; pET23b usually adds a C-terminal His6 tag; copies: 12
# Target: the molecule itself
# Assay: SEC; Superose 6 column; purified OsHSP18.2 run with molecular weight markers, Ve/Vo against log molecular weight; homooligomer
protein,measurement,value
B1,stoichiometry N,~12 subunits
